{
  "source": "patent US12297265B2",
  "about": "“Antibody and use thereof” (SICHUAN KELUN-BIOTECH BIOPHARMACEUTICAL CO., LTD., priority 2018, dated 2025)",
  "biological_target": "human Claudin18.2 (Homo sapiens, UniProt P56856)",
  "test": "Cellular ELISA on L929-Claudin 18.2 cells",
  "format": "binding",
  "parameters": "expressed in transfected cells; host or cells: L929, infected with pLVX-IRES-puro lentivirus, puromycin-selected monoclonal line; cells were formaldehyde-fixed for the cellular ELISA",
  "conditions": "Table 10 experiment",
  "procedure": "Human Claudin18.2 is a four transmembrane protein and has a complex structure. Cellular ELISA was thus carried out to maintain the structure of Claudin18.2. The stable cell line L929-Claudin 18.2 constructed in Example 1 were used for detection. Specifically, L929-Claudin 18.2 adherent cells were detached by 2 mM EDTA treatment. The cells were resuspended and adjusted to 2×10^5/mL and 100 μL of the resuspension was plated into 96 well plate and incubated overnight at 37° C. The next day, the media was removed, and the plate was washed with PBS once. 100 μL/well 4% formaldehyde was added to the plate. After 30 min of incubation at room temperature, formaldehyde was removed, followed by washing twice with PBS. Blocking buffer (PBS containing 2% BSA) was then added to the plate at 100 μL/well, and incubated at 37° C. for 2 h. After removal of blocking buffer, 100 μL/well of serially diluted antibodies (starting from 1 μM, with 4-fold dilution, for a total of 11 concentrations) were added to the corresponding wells, which were incubated at 37° C. for 2h afterwards. The plate was washed with 250 μL PBST for 5 times, and was allowed to stand for 2 min each time. 100 μL/well of horseradish peroxidase labeled anti-Human IgG secondary antibody (HRP-anti-Human IgG, Jackson ImmunoResearch, 109-035-003) diluted 1:10000 in PBS (containing 2% BSA) was added to the plate. The plate was incubated at 37° C. for 1 h and washed with 250 μL PB ST 6 times, wherein the plate was allowed to stand for 2 min each time. 100 μL/well of TMB solution (Thermo, 34029) was added. The reactions were incubated at 37° C. for 20 min and stopped with 50 μL 2 mol/L H2504. The absorbance at 450 nm was read on a plate reader (MD, SpectraMax M2) and the results were subjected to curve fitting by Graphpad Prism.",
  "data": [
    {"molecule": "2C6.9-hz11: humanized antibody of 2C6.9; VH SEQ ID NO: 39, VL SEQ ID NO: 41 (antibody, V domains shown, Heavy chain variable region of humanized antibody 2C6.9hz11; light chain variable region of humanized antibody 2C6.9hz11/2C6.9hz21) VH: QVQLQESGPGLVKPSETLSLTCTVSGFSLTRYGVSWIRQPPGKGLEWIGVIWGDGNTNYNPSLKSRVTISKDSSKSQVSLKLSSVTAADTAVYYCARVNFGNALDYWGQGTLVTVSS VL: DIVMTQSPDSLAVSLGERATINCKSSQSLLNSGNQKNYLTWYQQKPGQPPKLLIYWASTRDSGVPDRFSGSGSGTDFTLTISSLQAEDVAVYYCQNDFIFPLTFGGGTKVEIK", "values": [
      {"measurement": "Max Signal Value (OD450)", "result": 0.8, "unit": "OD450"}
    ]}
  ]
}
